Target: SPPV14ΔC31 (sheeppoxvirus SPPV14 residues 1-145, 31 residue C-terminal deletion) (sheeppoxvirus)
Experiment: ITC

| Molecule | Kd [nM] |
| --- | --- |
| Bax BH3 motif peptide (human, 28-mer) | 26 |
| Hrk BH3 motif peptide (human, 26-mer) | 39 |
| Bad BH3 motif peptide (human) | 5200 |
| VPGRLAEVCAVLLRLGDELEMIRPSV [Bok BH3 motif peptide (human, residues 59-84)] | 7600 |

From publication doi:10.1101/2020.03.10.986331
